From patent US20140205597A1 (published 2014)
Substitutions are numbered along the chain they refer to. Names may count otherwise.

B1: SEQ ID NO 48 (VHH)
VHH: EVQLVESGGGLVQPGGSLRLSCIASGLPFSTKSMGWFRQAPGKEREFVARISPGGTSRYYGDFVKGRFAISRDNAKNTTWLQMNSLKAEDTAVYYCASGERSTYIGSNYYRTNEYDYWGTGTQVTVSS
B2: SEQ ID NO 49 (VHH)
VHH: EVQLLESGGGLVQPGGSLRLSCAASGLPFSTKSMGWFRQAPGKGREFVSRISPGGTSRYYGDFVKGRFTISRDNSKNTLYLQMNSLRAEDTAVYYCASGERSTYIGSNYYRTNEYDYWGQGTLVTVSS
notes: C-terminal tag plus humanizing mutations
B3: SEQ ID NO 47 (VHH)
VHH: EVQLVESGGGLVQPGGSLRLSCAASGSVFKINVMAWYRQAPGKGRELVAGIISGGSTSYADSVKGRFTISRDNAKNTLYLQMNSLRPEDTAVYYCAFITTESDYDLGRRYWGQGTLVTVSS
B4: SEQ ID NO 38 (bispecific antibody)
chain: EVQLVESGGGLVQPGGSLRLSCAASGFTFSSYAMSWVRQAPGKGLEWVSGIKSSGDSTRYAGSVKGRFTISRDNAKNTLYLQMNSLRPEDTAVYYCAKSRVSRTGLYTYDNRGQGTLVTVSSGGGGSGGGGSGGGGSGGGGSEVQLVESGGGLVQPGGSLRLSCAASGRTFNNYAMGWFRQAPGKEREFVAAITRSGVRSGVSAIYGDSVKDRFTISRDNAKNTLYLQMNSLRPEDTAVYYCAASAIGSGALRRFEYDYSGQGTLVTVSSA
notes: Nanobody construct; C-terminal: A
B5: SEQ ID NO 43 (bispecific antibody)
chain: DVQLVESGGGLVQPGGSLRLSCAASGFILDYYAIGWFRQAPGKEREGVLCIDASDDITYYADSVKGRFTISRDNSKNTVYLQMNSLRPEDTAVYYCATPIGLSSSCLLEYDYDYWGQGTLVTVSSGGGGSGGGSEVQLLESGGGLVQPGGSLRLSCAASGFTFRSFGMSWVRQAPGKGPEWVSSISGSGSDTLYADSVKGRFTISRDNSKNTLYLQMNSLRPEDTAVYYCTIGGSLSRSSQGTLVTVSSA
notes: as for B4
B6: SEQ ID NO 45 (VHH)
VHH: EVQLVESGGGLVQAGGSLRLSCAASRSIGRLDRMGWYRHRTGEPRELVATITGGSSINYGDFVKGRFTISIDNAKNTVYLQMNNLKPEDTAVYYCNFNKYVTSRDTWGQGTQVTVSS
notes: mutations: P14A, P41T, S62F, S74A, S82bN, R83K, L108Q
B7: SEQ ID NO 46 (VHH)
VHH: B6 VHH
notes: C-terminal tag
B8: SEQ ID NO 71 (VHH)
VHH: B6 VHH with A14P, T41P, F62S, A74S, N84S, K86R, Q112L, S117G
notes: S113G
B9: SEQ ID NO 80 (VHH)
VHH: B6 VHH with A14P, T41P, F62S, A74S, N84S, K86R, Q112L, T114Q, S116G, S117G
notes: T110Q, S112G, S113G
B10: SEQ ID NO 86 (VHH)
VHH: B6 VHH with L11S, A14P, T41P, F62S, A74S, N84S, K86R, Q112L, T114Q
notes: L11S, T110Q
B11: SEQ ID NO 81 (VHH)
VHH: B6 VHH with L11V, A14P, T41P, F62S, A74S, N84S, K86R, Q112L
notes: L11V
B12: SEQ ID NO 68 (VHH)
VHH: B6 VHH with T41P, F62S, A74S, N84S, K86R
notes: P14A, L108Q
B13: SEQ ID NO 72 (VHH)
VHH: B6 VHH with A14P, T41P, F62S, A74S, N84S, K86R, Q112L, S116G, S117G
notes: S112G, S113G
B14: SEQ ID NO 84 (VHH)
VHH: B6 VHH with A14P, T41P, F62S, A74S, N84S, K86R, Q112L, S116G
notes: S112G
B15: SEQ ID NO 67 (VHH)
VHH: B6 VHH with A14P, T41P, F62S, A74S, N84S, Q112L
notes: R83K
B16: SEQ ID NO 65 (VHH)
VHH: B6 VHH with T41P, F62S, A74S, N84S, K86R, Q112L
notes: P14A
B17: SEQ ID NO 70 (VHH)
VHH: B6 VHH with A14P, T41P, F62S, A74S, N84S, K86R, Q112L, T114Q
notes: T110Q
B18: SEQ ID NO 83 (VHH)
VHH: B6 VHH with A14P, T41P, F62S, A74S, N84S, K86R, T90A, Q112L
notes: T87A
B19: SEQ ID NO 85 (VHH)
VHH: EVQLVESGGGSVQPGGSLRLSCAASRSIGRLDRMGWYRHRPGEPRELVATITGGSSINYGDSVKGRFTISIDNSKNTVYLQMNSLRPEDTAVYYCNFNKYVTSRDTWGQGTLVQVGG
notes: L11S, T110Q, S112G, S113G
B20: SEQ ID NO 82 (VHH)
VHH: B19 VHH with S11L, P87A, Q114T, G116S, G117S
notes: P84A
B21: SEQ ID NO 78 (VHH)
VHH: B19 VHH with S11L, Q13R, Q114T, G116S, G117S
notes: Q13R
B22: SEQ ID NO 69 (VHH)
VHH: B19 VHH with S11L, L112Q, Q114T, G116S, G117S
notes: L108Q
B23: SEQ ID NO 66 (VHH)
VHH: B19 VHH with Q114T, G116S, G117S
notes: L11S
B24: SEQ ID NO 42 (VHH)
chain: EVQLVESGGGLVQPGGSLRLSCAASGRTFSYNPMGWFRQAPGKGRELVAAISRTGGSTYYPDSVEGRFTISRDNAKRMVYLQMNSLRAEDTAVYYCAAAGVRAEDGRVRTLPSEYTFWGQGTQVTVSSAAAEVQLVESGGGLVQPGGSLRLSCAASGRTFSYNPMGWFRQAPGKGRELVAAISRTGGSTYYPDSVEGRFTISRDNAKRMVYLQMNSLRAEDTAVYYCAAAGVRAEDGRVRTLPSEYTFWGQGTQVTVSSA
notes: as for B4

Tests used:
[1] = target: T1, monoclonal antibody 21-4-3; test: Biacore, captured 21-4-3
T1 construct: mouse IgG1 heavy chain, kappa light chain; also called mAb21-4-3; produced by hybridoma ABH0015 (LMBP-9680-CB)
Protocol: Binding measurements were performed using a Biacore T100 using a CM5 T120416 sensor chip, with running buffer HBS-EP+, 25° C. […] The anti-mouse IgG used was a polyclonal rabbit anti-mouse IgG antibodies reacting with all IgG subclasses, IgA and IgM (GE Healthcare; Cat#BR-1008-38; Lot#10056316). Immobilisation of the anti-mouse IgG was performed using manual amine coupling using a 7 minute injection of EDC/NHS for activation and a 7 minute injection of 1M ethanolamine HCl pH 8.5 for deactivation (Biacore, amine coupling kit).

[2] = target: T2, purified interference factor(s) from serum of Donor A; test: Biacore, immobilized interference factor
T2 construct: text names Donors 8, 19 and 30

[3] = target: T3, purified interference factor(s) from serum of Donor C; test: Biacore, immobilized interference factor
T3 construct: text names Donors 8, 19 and 30

[4] = target: T4, purified interference factor(s) from serum of Donor B; test: Biacore, immobilized interference factor
T4 construct: text names Donors 8, 19 and 30

Binder | binding vs Reference Sequence (=100%) [1] [%] | binding vs Reference Sequence (=100%) [2] [%] | binding vs Reference Sequence (=100%) [3] [%] | binding vs Reference Sequence (=100%) [4] [%]
B1 | 3 | 0 |  | 
B2 | 4 | 0 |  | 
B3 | 4 | 1 |  | 
B4 | 0 | 9 | 7 | 25
B5 | 3 | 3 |  | 20
B6 | 22 | 0 |  | 
B7 | 2 | 0 |  | 
B8 | 44 | 88 | 87 | 105
B9 | 51 | 65 | 58 | 5
B10 | 64 | 76 | 86 | 6
B11 | 75 | 94 | 89 | 50
B12 | 26 | 38 | 49 | 115
B13 | 45 | 70 | 56 | 47
B14 | 91 | 84 | 83 | 50
B15 | 101 | 102 | 96 | 117
B16 | 23 | 73 | 64 | 121
B17 | 106 | 90 | 98 | 105
B18 | 79 | 56 | 61 | 73
B19 | 32 | 46 | 42 | 5
B20 | 56 | 96 | 100 | 80
B21 | 1 | 96 | 100 | 96
B22 | 106 | 80 | 84 | 120
B23 | 48 | 81 | 84 | 29
B24 | 0 | 1 |  | 4
